Values belong to the molecule of their own block, whether it stands above or below them.
Legend:
factor Xa [1] = target: factor Xa (UniProt P00742); experiment: cell-based or functional assay
factor Xa [2] = target: factor Xa (UniProt P00742); experiment: cell-based or functional assay; remark: listed apart in the source

Molecule: antithrombin III (from UniProt P01008 33-464)
t1/2 of inhibition of factor Xa by antithrombin III with PZ, cephalin and Ca++ ions (bioassay) (factor Xa [1]): 35 min

B1: human protein Z-dependent protease inhibitor (ZPI), purified from human plasma (protein)
chain: LAPSPQSPETPAPQNQTSRVVQAPKEEEEDEQEASEEKASEEEKAWLMASRQQLAKETSNFGFSLLRKISMRHDGNMVFSPFGMSLAMTGLMLGATGPTETQIKRGLHLQALKPTKPGLLPSLFKGLRETLSRNLELGLTQGSFAFIHKDFDVKETFFNLSKRYFDTECVPMNFRNASQAKRLMNHYINKETRGKIPKLFDEINPETKLILVDYILFKGKWLTPFDPVFTEVDTFHLDKYKTIKVPMMYGAGKFASTFDKNFRCHVLKLPYQGNATMLVVLMEKMGDHLALEDYLTTDLVETWLRNMKTRNMEVFFPKFKLDQKYEMHELLRQMGIRRIFSPFADLSELSATGRNLQVSRVLQRTVIEVDERGTEAVAGILSEITAYSMPPVIKVDRPFHFMIYEETSGMLLFLGRVVNPTLL
modifications: Plasma glycoprotein with five potential N-linked glycosylation sites; the glycans are not carried by the letters.
Maximal factor Xa inhibition, amidolytic assay, reached within <1 minute (with PZ, Ca++ ions, cephalin) (factor Xa [2]): 70%
Maximal factor Xa inhibition, bioassay, reached within <1 minute (with PZ, Ca++ ions, cephalin) (factor Xa [2]): 97%
factor Xa amidolytic activity that persists at relatively high concentrations of ZPI (factor Xa [2]): 20%
stoichiometry (ZPI:factor Xa) from ZPI dose/response, factor Xa amidolytic assay with PZ, CaCl2 and cephalin (mol ZPI per mol factor Xa) (factor Xa [2]): 1.2

B4: rZPI(Y387R), recombinant ZPI with tyrosine 387 changed to arginine (protein, UniProt Q9UK55 22-444 with Y387R, looked up)
Protein Z-dependent protease inhibitor: LAPSPQSPETPAPQNQTSRVVQAPKEEEEDEQEASEEKASEEEKAWLMASRQQLAKETSNFGFSLLRKISMRHDGNMVFSPFGMSLAMTGLMLGATGPTETQIKRGLHLQALKPTKPGLLPSLFKGLRETLSRNLELGLTQGSFAFIHKDFDVKETFFNLSKRYFDTECVPMNFRNASQAKRLMNHYINKETRGKIPKLFDEINPETKLILVDYILFKGKWLTPFDPVFTEVDTFHLDKYKTIKVPMMYGAGKFASTFDKNFRCHVLKLPYQGNATMLVVLMEKMGDHLALEDYLTTDLVETWLRNMKTRNMEVFFPKFKLDQKYEMHELLRQMGIRRIFSPFADLSELSATGRNLQVSRVLQRTVIEVDERGTEAVAGILSEITARSMPPVIKVDRPFHFMIYEETSGMLLFLGRVVNPTLL
ZPI activity of conditioned media, two-stage assay of PZ-dependent factor Xa inhibition (factor Xa [2]): 21 mU/mL

Continued, values first:

Apparent Inhibition (%) of factor Xa, one-stage coagulation assay; incubation factor Xa 15 sec, PZ 120 sec (factor Xa [1]): 70%
Apparent Inhibition (%) of factor Xa, one-stage coagulation assay; incubation factor Xa 30 sec, PZ 120 sec (factor Xa [1]): 71%
Apparent Inhibition (%) of factor Xa, one-stage coagulation assay; incubation factor Xa 60 sec, PZ 120 sec (factor Xa [1]): 73%
Apparent Inhibition (%) of factor Xa, one-stage coagulation assay; incubation factor Xa 90 sec, PZ 120 sec (factor Xa [1]): 76%
Apparent Inhibition (%) of factor Xa, one-stage coagulation assay; incubation factor Xa 120 sec, PZ 0 sec (factor Xa [1]): 0%
Apparent Inhibition (%) of factor Xa, one-stage coagulation assay; incubation factor Xa 120 sec, PZ 15 sec (factor Xa [1]): 50%
Apparent Inhibition (%) of factor Xa, one-stage coagulation assay; incubation factor Xa 120 sec, PZ 30 sec (factor Xa [1]): 61%
Apparent Inhibition (%) of factor Xa, one-stage coagulation assay; incubation factor Xa 120 sec, PZ 60 sec (factor Xa [1]): 72%
Apparent Inhibition (%) of factor Xa, one-stage coagulation assay; incubation factor Xa 120 sec, PZ 90 sec (factor Xa [1]): 76%
Apparent Inhibition (%) of factor Xa, one-stage coagulation assay; incubation factor Xa 120 sec, PZ 120 sec (factor Xa [1]): 78%
Apparent Inhibition (%) of factor Xa, one-stage coagulation assay; incubation factor Xa 120 sec, PZ 120 sec w/o Ca++ (factor Xa [1]): 0%
Apparent Inhibition (%) of factor Xa, one-stage coagulation assay; incubation factor Xa 120 sec, PZ 120 sec w/o cephalin (factor Xa [1]): 0%
Apparent factor Xa inhibition by inclusion of PZ during preincubation, plasma treated with preimmune IgG (clotting time) (factor Xa [1]): 76%
molar ratio (PZ:factor Xa) from PZ dose/response of ZPI-mediated factor Xa inhibition, amidolytic assay (mol PZ per mol factor Xa) (factor Xa [1]): 1.4
Molecule: human protein Z (PZ), isolated from citrated fresh frozen plasma (from UniProt P22891 41-400)

Apparent Inhibition (%) of factor Xa, one-stage coagulation assay; incubation factor Xa 120 sec, PZT 120 sec (factor Xa [1]): 0%
Molecule: thrombin-cleaved PZ (PZT) (from UniProt P22891 84-400)

inhibition of the chromogenic activity of the factor Xa preparations (factor Xa [1]): > 99%
Molecule: tissue factor pathway inhibitor (TFPI) (from UniProt P10646 29-304)

ZPI activity of conditioned media, two-stage assay of PZ-dependent factor Xa inhibition (factor Xa [2]): 375 mU/mL
B2: rZPI(WT), recombinant wild-type ZPI expressed in CHO cells (protein, UniProt Q9UK55 22-444, looked up)
Protein Z-dependent protease inhibitor: LAPSPQSPETPAPQNQTSRVVQAPKEEEEDEQEASEEKASEEEKAWLMASRQQLAKETSNFGFSLLRKISMRHDGNMVFSPFGMSLAMTGLMLGATGPTETQIKRGLHLQALKPTKPGLLPSLFKGLRETLSRNLELGLTQGSFAFIHKDFDVKETFFNLSKRYFDTECVPMNFRNASQAKRLMNHYINKETRGKIPKLFDEINPETKLILVDYILFKGKWLTPFDPVFTEVDTFHLDKYKTIKVPMMYGAGKFASTFDKNFRCHVLKLPYQGNATMLVVLMEKMGDHLALEDYLTTDLVETWLRNMKTRNMEVFFPKFKLDQKYEMHELLRQMGIRRIFSPFADLSELSATGRNLQVSRVLQRTVIEVDERGTEAVAGILSEITAYSMPPVIKVDRPFHFMIYEETSGMLLFLGRVVNPTLL

ZPI activity of conditioned media, two-stage assay of PZ-dependent factor Xa inhibition (factor Xa [2]): < 10 mU/mL
B3: rZPI(Y387A), recombinant ZPI with tyrosine 387 changed to alanine (protein, UniProt Q9UK55 22-444 with Y387A, looked up)
Protein Z-dependent protease inhibitor: LAPSPQSPETPAPQNQTSRVVQAPKEEEEDEQEASEEKASEEEKAWLMASRQQLAKETSNFGFSLLRKISMRHDGNMVFSPFGMSLAMTGLMLGATGPTETQIKRGLHLQALKPTKPGLLPSLFKGLRETLSRNLELGLTQGSFAFIHKDFDVKETFFNLSKRYFDTECVPMNFRNASQAKRLMNHYINKETRGKIPKLFDEINPETKLILVDYILFKGKWLTPFDPVFTEVDTFHLDKYKTIKVPMMYGAGKFASTFDKNFRCHVLKLPYQGNATMLVVLMEKMGDHLALEDYLTTDLVETWLRNMKTRNMEVFFPKFKLDQKYEMHELLRQMGIRRIFSPFADLSELSATGRNLQVSRVLQRTVIEVDERGTEAVAGILSEITAASMPPVIKVDRPFHFMIYEETSGMLLFLGRVVNPTLL

Reference: patent publication US20040186053A1
